Data taken from article PMC7005732.

What was measured:
[1] = target: Human non-translating 80S ribosome, puromycin-treated, purified from HeLa cells (human (endogenous in HeLa)) (UniProt P62750); assay: cryo-EM structure; in vitro reconstituted complex (dataset 2; merged with dataset 1 for the final map): 100 nM purified HeLa 80S ribosomes with an eightfold excess of recombinant Ebp1, SEC buffer (20 mM HEPES KOH pH 7.5, 5 mM Mg(OAc)2, 175 mM KOAc, 1 mM TCEP); occupancy estimated from computational particle sorting
[2] = target: Human non-translating 80S ribosome, puromycin-treated, purified from HeLa cells (human (endogenous in HeLa)) (UniProt P62750); assay: cryo-EM structure; in vivo pulled-out Ebp1-ribosome complex (dataset 1; merged with dataset 2 for the final map): 100 nM 80S ribosomes purified from HeLa cells without addition of recombinant Ebp1; occupancy estimated from computational particle sorting

Row | fraction of ribosomes decorated with Ebp1 [1] | fraction of ribosomes decorated with Ebp1 [2] | Substance
1 | 75% |  | ErbB3 receptor-binding protein (Ebp1), full-length, p48 isoform, recombinant (from UniProt Q9UQ80 1-394) (natural protein)
2 |  | 25% | Endogenous Ebp1 on 80S ribosomes purified from HeLa cells (from UniProt Q9UQ80 1-394) (natural protein)
